Measurements from PMC3297495, “A rice transient assay system identifies a novel domain in NRR required for interaction with NH1/OsNPR1 and inhibition of NH1-mediated transcriptional activation” (Plant Methods, 2012).

Experiments:
Gal4:rTGA2.1 = Gal4:rTGA2.1 (rice (Oryza sativa L)); test: cell-based or functional assay
Gal4:rLG2 = Gal4:rLG2 (rice (Oryza sativa L)); test: cell-based or functional assay

B1: YN:NH1 (natural protein, rice (Oryza sativa L), UniProt Q9FDY4 1-582, looked up)
chain: MEPPTSHVTNAFSDSDSASVEEGGADADADVEALRRLSDNLAAAFRSPEDFAFLADARIAVPGGGGGGGDLLVHRCVLSARSPFLRGVFARRAAAAAGGGGEDGGERLELRELLGGGGEEVEVGYEALRLVLDYLYSGRVGDLPKAACLCVDEDCAHVGCHPAVAFMAQVLFAASTFQVAELTNLFQRRLLDVLDKVEVDNLLLILSVANLCNKSCMKLLERCLDMVVRSNLDMITLEKSLPPDVIKQIIDARLSLGLISPENKGFPNKHVRRIHRALDSDDVELVRMLLTEGQTNLDDAFALHYAVEHCDSKITTELLDLALADVNHRNPRGYTVLHIAARRREPKIIVSLLTKGARPADVTFDGRKAVQISKRLTKQGDYFGVTEEGKPSPKDRLCIEILEQAERRDPQLGEASVSLAMAGESLRGRLLYLENRVALARIMFPMEARVAMDIAQVDGTLEFNLGSGANPPPERQRTTVDLNESPFIMKEEHLARMTALSKTVELGKRFFPRCSNVLDKIMDDETDPVSLGRDTSAEKRKRFHDLQDVLQKAFHEDKEENDRSGLSSSSSSTSIGAIRPRR
Question: Which results are given for B1?
Answer: UAS-Luc reporter (Luc/Gus) in rice protoplasts: Gal4:rTGA2.1 with untagged NH1 (Ubi-NH1) against Gal4:rTGA2.1 alone (Gal4:rTGA2.1): ~2 fold; UAS-Luc reporter (Luc/Gus) in rice protoplasts: Gal4:rLG2 with untagged NH1 (Ubi-NH1) against Gal4:rLG2 alone (Figure 1) (Gal4:rLG2): ~2 fold; UAS-Luc reporter (Luc/Gus) in rice protoplasts: Gal4:rLG2 with untagged NH1 (Ubi-NH1) against Gal4:rLG2 alone (Figure 4A) (Gal4:rLG2): ~3 fold
